Data published in patent publication US10808017B2, “Ubiquitin variants and uses therof as 53BP1 inhibitors” (The Governing Council of the University of Toronto, priority 2016, dated 2020).

Experiments:
TRIOBP = target: T1, TRIOBP (Homo sapiens, UniProt Q9H2D6); assay: Flag IP-MS of i53/i53-DM baits: prey TRIOBP; assay type: binding; conditions: 293T Flp-In/T-Rex extracts, LC-MS/MS, one column per replicate IP
T1 construct: endogenous in cells; host or cells: HEK293 Flp-In/T-REx
Procedure: (§1) Following immunoprecipitation of Flag-tagged i53 and i-53-DM from HEK293 Flp-In/T-REx cells, peptides were identified using LC-MS/MS. Proteins were digested in solution with trypsin (Sigma, T7575-1KT) and dried to completeness. For LC-MS/MS analysis, peptides were reconstituted in 5% formic acid and loaded onto a 12-15 cm fused silica column with pulled tip packed in-house with 3.5 μm Zorbax C18 (Agilent Technologies, Calif., USA).
(§2) i53 and i53-DM precipitates were analyzed using an LTQ (Thermo Scientific) coupled to an Agilent 1100 Series HPLC (Agilent Technologies). Peptides were eluted from the column using a 90 min period cycle with a linear gradient from 0% to 40% ACN in 0.1% formic acid. Tandem MS spectra were acquired in a data-dependent mode for the top 5 (LTQ) most abundant ions using collision-induced dissociation. Acquired spectra were searched against the human Refseq_V53 database using Mascot (Matrix Science).
(§3) 293T Flp-In/T-Rex cell lines were generated that expressed Flag-tagged i53 or i53-DM under the control of a tetracycline-inducible promoter as previously described. Nine IP-MS experiments were analyzed (3 biological replicate IPs each for control i53- and i53-DM expressing cell lines). The interacting proteins were identified by MASCOT to identify high-confidence interactors for i53. […]

PHB = target: T2, PHB (Homo sapiens, UniProt P35232); assay: Flag IP-MS of i53/i53-DM baits: prey PHB; assay type: binding; conditions: 293T Flp-In/T-Rex extracts, LC-MS/MS, one column per replicate IP
T2 construct: endogenous in cells; host or cells: HEK293 Flp-In/T-REx
T2 sequence (P35232 1-272): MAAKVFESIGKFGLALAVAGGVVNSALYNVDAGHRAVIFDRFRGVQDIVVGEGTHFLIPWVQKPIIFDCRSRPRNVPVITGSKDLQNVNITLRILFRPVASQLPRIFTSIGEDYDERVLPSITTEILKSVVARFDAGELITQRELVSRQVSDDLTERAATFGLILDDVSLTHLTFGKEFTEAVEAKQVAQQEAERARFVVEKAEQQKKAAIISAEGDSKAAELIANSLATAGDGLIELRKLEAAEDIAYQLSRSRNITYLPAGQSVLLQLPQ
Procedure: as §1, §2, §3

T1 sequence (Q9H2D6 whole entry): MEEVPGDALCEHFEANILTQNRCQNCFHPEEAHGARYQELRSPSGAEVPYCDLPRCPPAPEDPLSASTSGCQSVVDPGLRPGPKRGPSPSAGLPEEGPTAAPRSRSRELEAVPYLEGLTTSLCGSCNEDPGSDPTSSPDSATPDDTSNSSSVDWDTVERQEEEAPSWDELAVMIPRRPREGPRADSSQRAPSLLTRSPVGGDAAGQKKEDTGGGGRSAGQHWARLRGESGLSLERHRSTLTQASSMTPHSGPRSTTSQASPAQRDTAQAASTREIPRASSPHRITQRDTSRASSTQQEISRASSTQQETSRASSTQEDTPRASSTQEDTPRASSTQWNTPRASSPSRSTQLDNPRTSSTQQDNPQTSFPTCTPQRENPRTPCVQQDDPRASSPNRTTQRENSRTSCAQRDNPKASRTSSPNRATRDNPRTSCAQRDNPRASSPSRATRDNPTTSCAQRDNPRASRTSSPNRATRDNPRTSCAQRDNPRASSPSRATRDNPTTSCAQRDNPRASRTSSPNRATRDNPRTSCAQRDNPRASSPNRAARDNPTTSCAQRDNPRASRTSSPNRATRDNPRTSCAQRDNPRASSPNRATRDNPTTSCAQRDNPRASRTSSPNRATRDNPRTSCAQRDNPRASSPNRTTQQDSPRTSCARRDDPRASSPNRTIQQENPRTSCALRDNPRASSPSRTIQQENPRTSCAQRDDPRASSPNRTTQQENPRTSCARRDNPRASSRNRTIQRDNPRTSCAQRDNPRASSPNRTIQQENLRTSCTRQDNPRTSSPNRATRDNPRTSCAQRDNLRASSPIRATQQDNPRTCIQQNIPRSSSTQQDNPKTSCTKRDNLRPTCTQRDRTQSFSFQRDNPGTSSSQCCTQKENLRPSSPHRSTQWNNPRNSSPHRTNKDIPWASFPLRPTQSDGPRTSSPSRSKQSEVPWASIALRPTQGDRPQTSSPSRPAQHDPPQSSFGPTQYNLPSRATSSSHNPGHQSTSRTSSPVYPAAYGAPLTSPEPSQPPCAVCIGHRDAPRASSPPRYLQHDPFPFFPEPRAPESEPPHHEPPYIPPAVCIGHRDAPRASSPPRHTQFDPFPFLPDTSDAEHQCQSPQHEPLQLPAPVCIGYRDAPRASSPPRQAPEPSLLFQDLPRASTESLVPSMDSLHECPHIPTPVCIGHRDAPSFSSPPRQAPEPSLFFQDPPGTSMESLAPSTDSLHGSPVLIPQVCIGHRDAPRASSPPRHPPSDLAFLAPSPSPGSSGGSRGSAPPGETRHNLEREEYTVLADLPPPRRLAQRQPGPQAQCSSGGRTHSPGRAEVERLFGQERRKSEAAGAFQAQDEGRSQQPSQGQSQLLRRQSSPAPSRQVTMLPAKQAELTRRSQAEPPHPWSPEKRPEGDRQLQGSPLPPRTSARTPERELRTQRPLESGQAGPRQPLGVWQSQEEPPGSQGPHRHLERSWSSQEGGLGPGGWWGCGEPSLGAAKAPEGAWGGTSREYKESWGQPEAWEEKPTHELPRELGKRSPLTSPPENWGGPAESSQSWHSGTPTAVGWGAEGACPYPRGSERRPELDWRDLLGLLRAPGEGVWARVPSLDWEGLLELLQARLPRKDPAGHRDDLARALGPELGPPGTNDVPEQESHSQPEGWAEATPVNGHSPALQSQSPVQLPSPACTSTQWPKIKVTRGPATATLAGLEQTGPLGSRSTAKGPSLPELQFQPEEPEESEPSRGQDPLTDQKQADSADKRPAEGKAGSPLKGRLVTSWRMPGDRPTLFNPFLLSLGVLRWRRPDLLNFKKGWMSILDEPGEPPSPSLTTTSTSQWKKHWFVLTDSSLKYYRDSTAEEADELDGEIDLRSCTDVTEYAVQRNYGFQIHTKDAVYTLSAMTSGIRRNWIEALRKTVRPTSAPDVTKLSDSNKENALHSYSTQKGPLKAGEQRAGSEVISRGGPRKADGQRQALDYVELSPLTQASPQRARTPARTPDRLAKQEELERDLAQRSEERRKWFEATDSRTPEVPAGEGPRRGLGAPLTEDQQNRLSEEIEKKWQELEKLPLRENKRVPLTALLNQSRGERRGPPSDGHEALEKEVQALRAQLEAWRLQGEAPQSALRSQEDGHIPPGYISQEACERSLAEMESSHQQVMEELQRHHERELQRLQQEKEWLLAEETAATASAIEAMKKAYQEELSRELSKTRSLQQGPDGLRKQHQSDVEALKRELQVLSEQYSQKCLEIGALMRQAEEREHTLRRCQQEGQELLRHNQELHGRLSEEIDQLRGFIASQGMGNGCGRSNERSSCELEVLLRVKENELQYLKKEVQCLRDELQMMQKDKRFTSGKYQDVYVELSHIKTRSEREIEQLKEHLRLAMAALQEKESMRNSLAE

Substance | Total peptides, TRIOBP (TRIOBP) | Total peptides, PHB (PHB)
i53-DM: 53BP1-binding deficient mutant of i53 (P69L, L70V) | 3 | 
i53: UbvG08 with C-terminal di-glycine removed and I44A mutation; genetically encoded inhibitor of 53BP1 |  | 2
